Measurements reported in paper PMC2998070.

Target: mouse VMS1-Flag-HA (mouse) (UniProt Q80UU1)
Experiment: co-IP

Chain of VCP (Q01853 whole entry): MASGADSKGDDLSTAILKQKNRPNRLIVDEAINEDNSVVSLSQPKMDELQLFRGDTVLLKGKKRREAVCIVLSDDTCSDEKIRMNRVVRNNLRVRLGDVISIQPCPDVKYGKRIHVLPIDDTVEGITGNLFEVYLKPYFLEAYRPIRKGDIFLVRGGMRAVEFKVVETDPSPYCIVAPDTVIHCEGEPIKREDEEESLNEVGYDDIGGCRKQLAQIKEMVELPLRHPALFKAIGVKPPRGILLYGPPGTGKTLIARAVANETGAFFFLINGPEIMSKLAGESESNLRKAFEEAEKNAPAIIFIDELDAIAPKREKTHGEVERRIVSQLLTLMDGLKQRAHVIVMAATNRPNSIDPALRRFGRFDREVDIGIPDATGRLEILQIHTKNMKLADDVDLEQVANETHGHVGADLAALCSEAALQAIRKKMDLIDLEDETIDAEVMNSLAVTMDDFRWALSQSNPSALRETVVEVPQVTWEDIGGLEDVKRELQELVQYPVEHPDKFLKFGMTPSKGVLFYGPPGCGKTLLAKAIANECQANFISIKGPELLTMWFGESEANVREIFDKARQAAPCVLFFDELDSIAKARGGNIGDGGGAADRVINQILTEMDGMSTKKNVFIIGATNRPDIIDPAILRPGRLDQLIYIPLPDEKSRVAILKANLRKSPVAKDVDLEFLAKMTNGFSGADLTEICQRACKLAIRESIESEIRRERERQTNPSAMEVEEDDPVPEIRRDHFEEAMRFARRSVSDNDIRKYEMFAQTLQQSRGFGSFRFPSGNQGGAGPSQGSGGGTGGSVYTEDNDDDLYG
Chain of UniProt Q80UU1 (Q80UU1 whole entry): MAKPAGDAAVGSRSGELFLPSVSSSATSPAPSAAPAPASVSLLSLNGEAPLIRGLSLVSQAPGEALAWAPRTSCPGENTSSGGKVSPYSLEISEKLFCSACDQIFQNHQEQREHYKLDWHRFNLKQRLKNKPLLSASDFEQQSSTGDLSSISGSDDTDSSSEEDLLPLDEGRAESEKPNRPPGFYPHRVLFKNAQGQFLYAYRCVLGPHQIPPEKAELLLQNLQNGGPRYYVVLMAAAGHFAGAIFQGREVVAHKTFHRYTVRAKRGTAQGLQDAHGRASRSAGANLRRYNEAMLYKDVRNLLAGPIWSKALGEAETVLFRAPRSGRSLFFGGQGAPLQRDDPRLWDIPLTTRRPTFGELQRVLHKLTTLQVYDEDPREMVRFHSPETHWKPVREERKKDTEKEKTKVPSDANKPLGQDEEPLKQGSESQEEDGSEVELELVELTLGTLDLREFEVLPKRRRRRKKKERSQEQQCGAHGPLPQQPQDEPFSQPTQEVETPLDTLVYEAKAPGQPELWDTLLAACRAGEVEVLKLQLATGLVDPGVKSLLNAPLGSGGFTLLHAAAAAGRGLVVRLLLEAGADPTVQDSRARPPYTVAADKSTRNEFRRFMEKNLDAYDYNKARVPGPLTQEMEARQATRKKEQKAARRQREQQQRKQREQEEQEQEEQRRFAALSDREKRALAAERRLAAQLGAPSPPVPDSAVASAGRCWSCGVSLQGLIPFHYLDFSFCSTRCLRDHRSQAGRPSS

percent of the total cellular VCP associated with Vms1: < 5%
Substance: VCP (from UniProt Q01853 1-806) (natural protein)
